How the values were obtained:
[1] = molecular target: human CD20 (human) (UniProt P11836); test: cell ELISA on CD20-transfected CHO clone C12M, suspension format, 300,000 cells/well
[2] = molecular target: human CD20 (human) (UniProt P11836); test: Scatchard analysis, iodinated RITUXAN with unlabeled RITUXAN on CHO clone 2H3 cells in suspension (n=3)
[3] = molecular target: human CD20 (human) (UniProt P11836); test: Scatchard analysis, iodinated RITUXAN with unlabeled RITUXAN on adherent CHO clone 4H10 cells expressing human CD20 (n=3)
[4] = molecular target: human CD20 (human) (UniProt P11836); test: cell ELISA on CD20-transfected CHO clone 2H3, suspension format, 300,000 cells/well
[5] = molecular target: human CD20 (human) (UniProt P11836); test: cell ELISA on CD20-transfected CHO clone 1H6, suspension format, 300,000 cells/well
[6] = molecular target: human CD20 (human) (UniProt P11836); test: Scatchard analysis, iodinated RITUXAN with unlabeled RITUXAN on adherent CHO clone C12M cells expressing human CD20 (n=3)
[7] = molecular target: human CD20 (human) (UniProt P11836); test: Scatchard analysis, iodinated RITUXAN with unlabeled RITUXAN on WIL2 cells in suspension (n=3)
[8] = molecular target: human CD20 (human) (UniProt P11836); test: Scatchard analysis, iodinated RITUXAN with unlabeled RITUXAN on adherent CHO clone 6D7 cells expressing human CD20 (n=3)

human CD20 (human), sequence (P11836 whole entry): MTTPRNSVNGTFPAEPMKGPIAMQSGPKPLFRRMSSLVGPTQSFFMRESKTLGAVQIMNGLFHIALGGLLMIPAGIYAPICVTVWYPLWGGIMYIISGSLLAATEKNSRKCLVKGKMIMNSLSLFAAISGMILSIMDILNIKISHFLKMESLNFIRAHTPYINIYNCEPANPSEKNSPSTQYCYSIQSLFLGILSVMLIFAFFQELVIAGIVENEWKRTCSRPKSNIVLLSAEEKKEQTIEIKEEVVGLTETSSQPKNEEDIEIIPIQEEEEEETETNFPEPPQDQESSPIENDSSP

## RITUXAN® (rituximab) (antibody)
[1]
  EC50 (read off the curve): 200 ng/mL
[2]
  Kd: 8.57 nM
[3]
  Kd: 5.5 nM
[4]
  EC50 (read off the curve): 200 ng/mL
[5]
  EC50 (read off the curve): 200 ng/mL
[6]
  Kd: 13.7 nM
[7]
  Kd: 3.91 nM
[8]
  Kd: 5.97 nM
